For two molecules, IC50 (neutralization) and IC80 (neutralization) results are on record in patent publication US20200002405A1.

Read-outs that look alike come from different tables or passages of the source.

Holding throughout (test): cell-based or functional assay
Assay [1] deals with LASV Josiah (lineage IV) glycoprotein, full-length GP (Lassa virus, Josiah strain) (UniProt P08669).
In assay [2] the target is LASV Pinneo (lineage I) glycoprotein (Lassa virus, strain Pinneo).
Assay [3] deals with LASV A19 (lineage II) glycoprotein (Lassa virus, strain A19).
Assay [4] addresses LASV 237 (lineage III) glycoprotein (Lassa virus, strain 237).
Assay [5] addresses LASV Josiah (lineage IV) glycoprotein, full-length GP (Lassa virus, Josiah strain) (UniProt P08669). The source holds these as a separate data set.

Chain of LASV Josiah (lineage IV) glycoprotein, full-length GP (Lassa virus, Josiah strain) (P08669 2-491): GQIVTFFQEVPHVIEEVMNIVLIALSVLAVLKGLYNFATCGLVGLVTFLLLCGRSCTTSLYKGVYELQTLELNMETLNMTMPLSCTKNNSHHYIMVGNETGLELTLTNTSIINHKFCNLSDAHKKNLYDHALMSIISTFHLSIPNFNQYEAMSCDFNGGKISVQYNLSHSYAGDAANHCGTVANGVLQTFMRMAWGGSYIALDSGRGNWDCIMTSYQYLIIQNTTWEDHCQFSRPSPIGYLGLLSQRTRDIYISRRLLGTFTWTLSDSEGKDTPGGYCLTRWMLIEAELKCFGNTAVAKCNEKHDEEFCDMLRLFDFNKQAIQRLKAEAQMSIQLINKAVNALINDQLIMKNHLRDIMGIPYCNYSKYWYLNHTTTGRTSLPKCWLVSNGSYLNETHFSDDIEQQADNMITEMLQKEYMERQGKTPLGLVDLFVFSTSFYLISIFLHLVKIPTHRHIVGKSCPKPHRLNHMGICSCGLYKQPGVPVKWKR

B1: 25.10C (antibody, V domains shown)
VH: QVQLQESGGGLVKPGGSLRLSCTASGFNFNKYNMNWVRQAPGKGLEWVSSISALSTYIYYADSLKGRFTVSRDNAKNSLFLQMNSLRDDDTAVYYCAREIRRASTWSADLWGRGTLVTVSS
VL: DIQMTQSPSSLSASVGDRVIITCRASQSISSSLNWYQQKPGKAPKLLIYAAVNLETGVPSRFSGSGFGTDFTLAISNVQPEDFATYYCQQSDTRTFGRGTKLDVKR
Regarding B1, the IC50 (neutralization) in assay [1] was 0.16 µg/mL; in assay [2], 0.226 µg/mL; in assay [3] it was 0.104 µg/mL; in assay [4], 0.058 µg/mL; in assay [5], 0.094 µg/mL. Also, the IC80 (neutralization) in assay [1] stood at 0.247 µg/mL; in assay [2], 0.564 µg/mL; in assay [3] it was 0.364 µg/mL; in assay [4], 0.18 µg/mL; in assay [5], 0.174 µg/mL.

B2: 19.7E (antibody, V domains shown)
VH: EVQLVESGGGLVRPGGSLRLSCAASGFSFSSYSMHWVRHVPGKGLVWVSYINSDGSTKIYADSVKGRFSISRDNAKNKLYLQMDSLRVEDTAVYSCVRLVHYDWSPFVWGQGTLVTVSS
VL: EIVLTQSPSTLSASVGDRVTITCRASQSINNWLAWYQEKPGKAPKLLINKASSLESGVPSRFSGSGSGTEFTLTITSLQPDDFATYYCQQYNSNSWTFGQGTKVDMKR
On to B2, for which the IC50 (neutralization) is 1.19 µg/mL in assay [1]; 1.56 µg/mL in assay [2]; > 20 µg/mL in assay [3]; 1.06 µg/mL in assay [4]; 5.91 µg/mL in assay [5]. Moreover, the IC80 (neutralization) was > 10 µg/mL in assay [1]; 3.27 µg/mL in assay [2]; > 20 µg/mL in assay [3]; 15 µg/mL in assay [4]; > 20 µg/mL in assay [5].
